Data on one substance can be found in publication PMC5263102.

For the assay, the target named is chimeric FcεRI (human α, rat β/γ) on hRBL^rαKO cells (human | rat (endogenous in RBL-2H3)) (UniProt P12319). As to the kind of experiment: flow cytometry on cells.
Chain of UniProt P12319 (P12319 26-257, change not shown, chain 1 of 3): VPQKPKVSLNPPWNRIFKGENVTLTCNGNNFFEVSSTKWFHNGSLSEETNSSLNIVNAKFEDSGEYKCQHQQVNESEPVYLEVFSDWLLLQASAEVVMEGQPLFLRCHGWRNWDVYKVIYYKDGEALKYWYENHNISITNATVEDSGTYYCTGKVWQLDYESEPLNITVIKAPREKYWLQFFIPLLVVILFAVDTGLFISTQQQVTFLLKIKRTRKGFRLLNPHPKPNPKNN
Chain of UniProt P12319 (P13386 whole entry, change not shown, chain 2 of 3, further chain): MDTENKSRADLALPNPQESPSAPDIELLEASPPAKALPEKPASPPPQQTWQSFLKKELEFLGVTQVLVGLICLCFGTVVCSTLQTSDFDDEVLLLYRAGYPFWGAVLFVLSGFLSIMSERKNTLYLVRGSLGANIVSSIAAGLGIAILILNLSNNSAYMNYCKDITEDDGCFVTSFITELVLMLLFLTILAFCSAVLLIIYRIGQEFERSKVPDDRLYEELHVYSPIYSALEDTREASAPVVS
Chain of UniProt P12319 (P20411 19-86, change not shown, chain 3 of 3, further chain): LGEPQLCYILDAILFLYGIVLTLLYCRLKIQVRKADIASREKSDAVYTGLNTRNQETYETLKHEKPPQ

For “human IgE, Alexa 488-conjugated (hIgE^Alexa-488) (antibody)”, the % Receptor Occupied at 3.75 ng/ml IgE worked out at 0.16%, the % Receptor Occupied at 7.5 ng/ml IgE worked out at 0.26%, the % Receptor Occupied at 15 ng/ml IgE is 0.44% and the % Receptor Occupied at 30 ng/ml IgE is 1.1%. The % Receptor Occupied at 60 ng/ml IgE was determined as 1.89%, the % Receptor Occupied at 120 ng/ml IgE turned out to be 4%, the % Receptor Occupied at 1000 ng/ml IgE was 28% and the % Receptor Occupied at 4000 ng/ml IgE is 60%. This substance returned a % Receptor Occupied at 8000 ng/ml IgE of 78%, a % Receptor Occupied at 10000 ng/ml IgE of 83%, a % Receptor Occupied at 15000 ng/ml IgE of 93% and a % Receptor Occupied at 20000 ng/ml IgE of 100%. This substance also yielded a koff of 1.53e-05 s⁻¹ and a kon of 6230 M⁻¹ s⁻¹.
